# Assay results published in patent US20040142470, “Recombinase-based system for construction of adenovirus vectors” (published 2004).
# Target: Cre recombinase (UniProt P06956 P06956:1-343)
# Test: cell_activity; plaque formation in cotransfected 293Cre4 cells relative to homologous recombination; pCA36loxΔ gave plaques only in 293Cre cells (Table 2)
# Details: tags: stably expressed in 293Cre4 cells or from shuttle plasmid cassette (pLC2); chain copies: 4; BamHI/BglII overhangs
# Description: The efficiency of Cre/lox mediated recombination was compared with that of homologous recombination, by measuring the numbers of virus plaques obtained from cotransfections of 293 cells versus the numbers obtained following cotransfections of 293Cre4 cells (see, for example, U.S. patent application Ser. No. 08/473,168, filed Jun. 7, 1995; see also WO96/40955, hereby incorporated by reference).
# Cre recombinase, sequence (P06956 whole entry, one chain of several): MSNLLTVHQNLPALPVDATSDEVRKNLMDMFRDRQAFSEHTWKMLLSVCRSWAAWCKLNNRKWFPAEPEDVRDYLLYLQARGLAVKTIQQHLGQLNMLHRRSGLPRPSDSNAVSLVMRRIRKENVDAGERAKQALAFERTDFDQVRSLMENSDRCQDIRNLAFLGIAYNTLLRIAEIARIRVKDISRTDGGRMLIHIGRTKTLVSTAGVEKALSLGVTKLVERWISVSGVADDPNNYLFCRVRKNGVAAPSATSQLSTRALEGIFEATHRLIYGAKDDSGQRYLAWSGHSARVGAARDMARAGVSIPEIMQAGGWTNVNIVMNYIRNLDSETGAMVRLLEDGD
binder,measurement,value
loxP linker AB3233/3234 (in pBHG10lox and pCA36lox / pCA36loxΔ) (dsDNA) DNA 1: GATCCAATAACTTCGTATAGCATACATTATACGAAGTTATAAGTACTGAATTCG DNA 2: GATCCGAATTCAGTACTTATAACTTCGTATAATGTATGCTATACGAAGTTATTG,relative plaque formation efficiency,35 fold
